Biological target: T1, Human salivary α-amylase (human, UniProt P0DUB6 16-511)
T1 sequence (looked up): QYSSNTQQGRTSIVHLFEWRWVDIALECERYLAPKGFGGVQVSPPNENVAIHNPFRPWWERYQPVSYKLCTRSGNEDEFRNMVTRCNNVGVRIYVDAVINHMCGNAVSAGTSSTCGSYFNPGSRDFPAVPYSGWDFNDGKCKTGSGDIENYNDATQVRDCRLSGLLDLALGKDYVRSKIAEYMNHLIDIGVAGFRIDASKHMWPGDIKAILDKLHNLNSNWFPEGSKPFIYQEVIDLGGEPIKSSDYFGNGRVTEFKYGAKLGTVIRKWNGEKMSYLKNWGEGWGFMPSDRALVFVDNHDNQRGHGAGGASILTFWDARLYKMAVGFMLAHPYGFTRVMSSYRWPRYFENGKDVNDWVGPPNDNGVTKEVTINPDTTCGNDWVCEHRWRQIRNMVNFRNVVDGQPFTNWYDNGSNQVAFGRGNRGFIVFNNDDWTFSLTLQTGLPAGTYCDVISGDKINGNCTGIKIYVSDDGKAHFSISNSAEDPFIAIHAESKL
Assay: SPR

B1: Amylase binding protein A (natural protein, S. gordonii, UniProt A8AZZ3 1-195, looked up)
chain: MKKVLLSSVVALTLFAAAAPVFSADEATDAARNNDGAYYLQTQFTNADKVNEYLAQHDGEIRAEAAADPAVVAAKAALDAVEGGSHNYGEVKAAYEAAFNNAFNAVRNKYVQQFQATYNNATEQEGKTYIQGETPEQANARYLKRVGAANNQNPAAEDKGATTPASKEEAKKSEAAAKNAGKAAGKALPKTSAVK
  Ka: 8.79e+07 M⁻¹
  Kd: 11.3 nM
  koff: 0.000307 s⁻¹
  kon: 27000 M⁻¹ s⁻¹
